Reference: publication PMC5018835
Values belong to the binder of their own block, whether it stands above or below them.

What was measured:
[1] = target: Hsp82p:Hsp82p^V391E/LL heterodimer (S. cerevisiae), P02829
[2] = target: Hsp82p:Hsp82p^LL heterodimer (S. cerevisiae), P02829

apparent affinity (Kapp) from the fit of ATPase stimulation of Hsp82p:Hsp82p^V391E/LL heterodimers (1 μM + 5 μM) against Aha1p concentration (Fig. 3E) [1]: 0.8 µM
B1: Aha1p (full length, N-terminal 6xHis tag), Q12449 1-350 (natural protein)
chain: MVVNNPNNWHWVDKNCIGWAKEYFKQKLVGVEAGSVKDKKYAKIKSVSSIEGDCEVNQRKGKVISLFDLKITVLIEGHVDSKDGSALPFEGSINVPEVAFDSEASSYQFDISIFKETSELSEAKPLIRSELLPKLRQIFQQFGKDLLATHGNDIQVPESQVKSNYTRGNQKSSFTEIKDSASKPKKNALPSSTSTSAPVSSTNKVPQNGSGNSTSIYLEPTFNVPSSELYETFLDKQRILAWTRSAQFFNSGPKLETKEKFELFGGNVISELVSCEKDKKLVFHWKLKDWSAPFNSTIEMTFHESQEFHETKLQVKWTGIPVGEEDRVRANFEEYYVRSIKLTFGFGAVL

inhibition of the ATPase activity of Hsp82p:Hsp82p^LL heterodimers (1 μM + 5 μM) by titrated Hch1p (~16% at 2.5 μM, ~11% at 5 μM, overcome at higher concentrations; Fig. 2C) [2]: 16%
B2: Hch1p (N-terminal 6xHis tag), P53834 1-153 (natural protein)
chain: MVVLNPNNWHWVDKNTLPWSKDYLNGKLTSLSTVSSDGKSKIELTQVSSITGDSNVSQRKGKPICYFDLQLSMNVKVTNLDTNKDDEDDDGILADGKLEIPEFMHDESDIPILSQGFDAFDGLVRSEFVPKVVETLLKYQDDLIKEHSKDIQV
